Measured values: publication PMC3169740

Molecular target: fluorescein-labeled SC pseudorepeat-repeat-1 peptide PR-R1[5F] (S. aureus)
Assay: other fluorescence titration

Substance: fibrinogen fragment D (domain or fragment)
- Kd: 36 nM
- stoichiometry N (mol of fragment D/mol of peptide): 0.77
